Reference: patent US20260286408A1, “PROCESS FOR MAKING FLAVANONE DERIVATIVES” (priority 2022, published 2026)

Assay: Biotransformation of flavanones with whole cells of E. coli BL21 (DE3)-AthF3H
Type: biochemical
Conditions: whole cells OD10, 1 g/L substrate, pH 7, 30° C., 2 h, all substrates
Experimental: The gene (GenBank: U33932) encoding the flavanone-3-hydroxylase (F3H) from Arabidopsis thaliana was ordered codon-optimized for E. coli. E. coli BL21 (DE3) was transformed with the resulting construct. For the precultures LB medium containing kanamycin (50 μg/mL) was inoculated with E. coli BL21 (DE3) strains harboring the constructs and incubated at 37° C. and 200 rpm over-night. The preculture was used to inoculate the main culture of 400 mL LB medium containing kanamycin (50 μg/mL), which was incubated at 37° C. until the optical density at 600 nm (OD600) reached approximately 0.8. Expression of AthF3H was induced by 0.1 mM IPTG (isopropyl-D-thiogalactopyranoside) and the cultures were shaken at 20-25° C. for 20 h. The cells were harvested by centrifugation, and then resuspended in 100 mM potassium phosphate buffer (KPi, pH 7) to an OD of 50.
Biotransformations were carried out with whole cells of E. coli BL21 (DE3)-AthF3H at OD10 in a total volume of 1 mL in 100 mM potassium phosphate buffer (KPi, pH 7) containing 10% DMSO, 1 g/L of eriodictyol, hesperetin, homoeriodictyol, pinocembrin, liquiritigenin or 5-deoxyeriodictyol, 10 mM α-ketoglutarate, 10 mM ascorbic acid and 0.25 mM FeSO4 at 30° C. and 1000 rpm for 2 h. […]

B1: AthF3H: flavanone-3-hydroxylase (F3H) from Arabidopsis thaliana (GenBank: U33932), expressed in E. coli BL21 (DE3) (protein, UniProt Q9S818 1-358, looked up)
Naringenin,2-oxoglutarate …: MAPGTLTELAGESKLNSKFVRDEDERPKVAYNVFSDEIPVISLAGIDDVDGKRGEICRQIVEACENWGIFQVVDHGVDTNLVADMTRLARDFFALPPEDKLRFDMSGGKKGGFIVSSHLQGEAVQDWREIVTYFSYPVRNRDYSRWPDKPEGWVKVTEEYSERLMSLACKLLEVLSEAMGLEKESLTNACVDMDQKIVVNYYPKCPQPDLTLGLKRHTDPGTITLLLQDQVGGLQATRDNGKTWITVQPVEGAFVVNLGDHGHFLSNGRFKNADHQAVVNSNSSRLSIATFQNPAPDATVYPLKVREGEKAILEEPITFAEMYKRKMGRDLELARLKKLAKEERDHKEVDKPVDQIFA
  conversion of flavanone substrates by F3H: full conversion of the available (S)-enantiomer
